Assay results published in US20140087995A1 (published 2014).
Numbered stars: 1 amine (or outer) side, 2 acyl side, 3 side chain; on linkers, the order of the positions; unused ones are H or OH. Bridge positions count the residues as written; N and C are the ends. Side chains are listed from the residue outwards. Ends that are not written are not given here. * marks the point of attachment. C20 diacid = O=C(O)CCCCCCCCCCCCCCCCCCC(=O)*; γGlu = O=C(O)[C@H](CCC(=O)[*:2])N[*:1]

T1: human calcitonin receptor (human, UniProt P30988 25-474)
T1 construct: whole, on cells; Membranes of stably transfected cells; also called hCTR; hCT
T1 sequence (looked up): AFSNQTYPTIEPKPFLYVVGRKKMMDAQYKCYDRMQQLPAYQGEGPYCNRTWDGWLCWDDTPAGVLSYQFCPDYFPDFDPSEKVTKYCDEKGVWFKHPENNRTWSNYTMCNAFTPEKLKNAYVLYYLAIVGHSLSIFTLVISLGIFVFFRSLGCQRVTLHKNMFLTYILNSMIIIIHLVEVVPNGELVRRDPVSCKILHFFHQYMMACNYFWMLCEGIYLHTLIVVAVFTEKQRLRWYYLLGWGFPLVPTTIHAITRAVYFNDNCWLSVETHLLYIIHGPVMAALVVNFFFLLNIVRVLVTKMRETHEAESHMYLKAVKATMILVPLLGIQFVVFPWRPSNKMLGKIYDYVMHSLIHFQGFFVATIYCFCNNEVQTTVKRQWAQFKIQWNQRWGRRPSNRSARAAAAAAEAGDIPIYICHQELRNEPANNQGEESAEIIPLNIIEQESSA

T2: rat calcitonin receptor (rat, UniProt P32214 25-516)
T2 construct: whole, on cells; Membranes of transiently transfected BHK tk'ts 13 cells; also called rCTR; rat calcitonin (a) receptor
T2 sequence (looked up): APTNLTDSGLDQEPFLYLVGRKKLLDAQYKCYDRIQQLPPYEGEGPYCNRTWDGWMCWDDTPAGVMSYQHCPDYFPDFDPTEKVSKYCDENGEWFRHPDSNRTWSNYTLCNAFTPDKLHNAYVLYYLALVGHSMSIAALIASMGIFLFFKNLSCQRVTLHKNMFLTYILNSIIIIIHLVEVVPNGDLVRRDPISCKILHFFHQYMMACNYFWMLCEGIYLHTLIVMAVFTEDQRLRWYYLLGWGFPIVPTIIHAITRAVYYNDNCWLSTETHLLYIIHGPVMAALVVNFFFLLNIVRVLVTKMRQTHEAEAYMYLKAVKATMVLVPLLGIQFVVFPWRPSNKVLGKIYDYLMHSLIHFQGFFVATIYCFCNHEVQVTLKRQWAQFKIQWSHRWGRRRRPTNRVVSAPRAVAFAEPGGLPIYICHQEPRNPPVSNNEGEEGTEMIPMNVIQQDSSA

T3: rat amylin receptor (rat calcitonin receptor + rat RAMP 3) (rat, UniProt P32214 25-516; Q9JJ73 23-147)
T3 construct: whole, on cells; Membranes of transiently transfected BHK tk'ts 13 cells; also called rAmylin-R; rat amylin 3(a) receptor
T3 sequence (looked up) 1: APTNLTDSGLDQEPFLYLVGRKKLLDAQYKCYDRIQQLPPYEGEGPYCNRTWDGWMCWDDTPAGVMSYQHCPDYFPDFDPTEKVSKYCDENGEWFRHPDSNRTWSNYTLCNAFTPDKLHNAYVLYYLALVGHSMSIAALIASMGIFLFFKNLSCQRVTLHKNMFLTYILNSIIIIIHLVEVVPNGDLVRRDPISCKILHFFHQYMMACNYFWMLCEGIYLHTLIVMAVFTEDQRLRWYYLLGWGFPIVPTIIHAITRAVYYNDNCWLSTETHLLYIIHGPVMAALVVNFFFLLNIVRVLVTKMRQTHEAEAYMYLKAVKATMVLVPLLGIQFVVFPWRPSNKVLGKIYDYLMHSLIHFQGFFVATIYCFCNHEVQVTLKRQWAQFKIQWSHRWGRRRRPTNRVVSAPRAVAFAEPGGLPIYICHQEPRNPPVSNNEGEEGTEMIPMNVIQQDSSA
T3 sequence (looked up) 2: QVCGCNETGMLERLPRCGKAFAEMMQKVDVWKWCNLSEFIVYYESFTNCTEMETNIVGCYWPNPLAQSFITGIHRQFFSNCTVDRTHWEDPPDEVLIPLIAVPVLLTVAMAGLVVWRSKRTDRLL


What was measured:
[1] = target: T1, human calcitonin receptor; experiment: ratio of IC50 on human calcitonin receptor to IC50 on human amylin receptor (reference m42), SPA competition
In short: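 IC₅₀ values were derived by one-site competition analysis of SPA counts. Cell membranes (35 ng/μL) with SPA beads were incubated with test compounds for 120 min at 25° C in Hepes buffer, pH 7.4, containing CaCl2, MgCl₂, OA and Tween20.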

[2] = target: T2, rat calcitonin receptor; experiment: ratio of IC50 on rat calcitonin receptor to IC50 on rat amylin receptor (reference m40)
[3] = target: T2, rat calcitonin receptor; experiment: SPA competition with 125I-calcitonin on membranes of BHK tk'ts 13 cells with rat calcitonin receptor (Assay VIII)
[4] = target: T3, rat amylin receptor (rat calcitonin …); experiment: SPA competition with 125I-rat amylin on membranes of BHK tk'ts 13 cells with rat calcitonin receptor + rat RAMP3 (Assay VI)

Binder	Ratio hCT/hAmylin binding [1]	Ratio rCT/rAmylin binding [2]	IC50 [3] [nM]	IC50 [4] [nM]
K([γGlu-C20 diacid])CNTATCATQRLAEFLRHSSPNFGAIPSSTNVGSHTY-NH2 (disulfide 2-7; N-terminus assumed; SMILES CC[C@H](C)[C@H](NC(=O)[C@H](C)NC(=O)CNC(=O)[C@H](Cc1ccccc1)NC(=O)[C@H](CC(N)=O)NC(=O)[C@@H]1CCCN1C(=O)[C@H](CO)NC(=O)[C@H](CO)NC(=O)[C@H](Cc1c[nH]cn1)NC(=O)[C@H](CCCNC(=N)N)NC(=O)[C@H](CC(C)C)NC(=O)[C@H](Cc1ccccc1)NC(=O)[C@H](CCC(=O)O)NC(=O)[C@H](C)NC(=O)[C@H](CC(C)C)NC(=O)[C@H](CCCNC(=N)N)NC(=O)[C@H](CCC(N)=O)NC(=O)[C@@H](NC(=O)[C@H](C)NC(=O)[C@@H]1CSSC[C@H](NC(=O)[C@@H](N)CCCCNC(=O)CC[C@H](NC(=O)CCCCCCCCCCCCCCCCCCC(=O)O)C(=O)O)C(=O)N[C@@H](CC(N)=O)C(=O)N[C@@H]([C@@H](C)O)C(=O)N[C@@H](C)C(=O)N[C@@H]([C@@H](C)O)C(=O)N1)[C@@H](C)O)C(=O)N1CCC[C@H]1C(=O)N[C@@H](CO)C(=O)N[C@@H](CO)C(=O)N[C@H](C(=O)N[C@@H](CC(N)=O)C(=O)N[C@H](C(=O)NCC(=O)N[C@@H](CO)C(=O)N[C@@H](Cc1c[nH]cn1)C(=O)N[C@H](C(=O)N[C@@H](Cc1ccc(O)cc1)C(N)=O)[C@@H](C)O)C(C)C)[C@@H](C)O, Synthetic acylated analogue of human amylin)	26.4	22.7	26.3	1.16
K([γGlu-γGlu-C20 diacid])CNTATCATQRLANFLRHSSPNFGAIPSSTPVGPRTY-NH2 (disulfide 2-7; N-terminus assumed; SMILES CC[C@H](C)[C@H](NC(=O)[C@H](C)NC(=O)CNC(=O)[C@H](Cc1ccccc1)NC(=O)[C@H](CC(N)=O)NC(=O)[C@@H]1CCCN1C(=O)[C@H](CO)NC(=O)[C@H](CO)NC(=O)[C@H](Cc1c[nH]cn1)NC(=O)[C@H](CCCNC(=N)N)NC(=O)[C@H](CC(C)C)NC(=O)[C@H](Cc1ccccc1)NC(=O)[C@H](CC(N)=O)NC(=O)[C@H](C)NC(=O)[C@H](CC(C)C)NC(=O)[C@H](CCCNC(=N)N)NC(=O)[C@H](CCC(N)=O)NC(=O)[C@@H](NC(=O)[C@H](C)NC(=O)[C@@H]1CSSC[C@H](NC(=O)[C@@H](N)CCCCNC(=O)CC[C@H](NC(=O)CC[C@H](NC(=O)CCCCCCCCCCCCCCCCCCC(=O)O)C(=O)O)C(=O)O)C(=O)N[C@@H](CC(N)=O)C(=O)N[C@@H]([C@@H](C)O)C(=O)N[C@@H](C)C(=O)N[C@@H]([C@@H](C)O)C(=O)N1)[C@@H](C)O)C(=O)N1CCC[C@H]1C(=O)N[C@@H](CO)C(=O)N[C@@H](CO)C(=O)N[C@H](C(=O)N1CCC[C@H]1C(=O)N[C@H](C(=O)NCC(=O)N1CCC[C@H]1C(=O)N[C@@H](CCCNC(=N)N)C(=O)N[C@H](C(=O)N[C@@H](Cc1ccc(O)cc1)C(N)=O)[C@@H](C)O)C(C)C)[C@@H](C)O, Synthetic acylated analogue of human amylin)	48.6	137	52.4	0.381
K([γGlu-γGlu-C20 diacid])CNTATCATQRLADFLRHSSPNFGAIPSSTNVGPETY-NH2 (disulfide 2-7, Synthetic acylated analogue of human amylin)	49.8	98.5	31.9	0.324
K([γGlu-γGlu-C20 diacid])CNTATCATQRLADFLRHSSPNFGAIPSSTNVGPRTY-NH2 (disulfide 2-7, Synthetic acylated analogue of human amylin; also called compound 130)	280	240	223	0.93

The next binders have a lower IC50 [3] than those just listed; values first:

Ratio hCT/hAmylin binding [1]	Ratio rCT/rAmylin binding [2]	IC50 [3] [nM]	IC50 [4] [nM]	Binder
38.6	45.5	15.4	0.339	K([γGlu-C20 diacid])CNTATCATQRLAEFLRHSSPNFGAIPSSTNVGPRTY-NH2 (disulfide 2-7; N-terminus assumed; SMILES CC[C@H](C)[C@H](NC(=O)[C@H](C)NC(=O)CNC(=O)[C@H](Cc1ccccc1)NC(=O)[C@H](CC(N)=O)NC(=O)[C@@H]1CCCN1C(=O)[C@H](CO)NC(=O)[C@H](CO)NC(=O)[C@H](Cc1c[nH]cn1)NC(=O)[C@H](CCCNC(=N)N)NC(=O)[C@H](CC(C)C)NC(=O)[C@H](Cc1ccccc1)NC(=O)[C@H](CCC(=O)O)NC(=O)[C@H](C)NC(=O)[C@H](CC(C)C)NC(=O)[C@H](CCCNC(=N)N)NC(=O)[C@H](CCC(N)=O)NC(=O)[C@@H](NC(=O)[C@H](C)NC(=O)[C@@H]1CSSC[C@H](NC(=O)[C@@H](N)CCCCNC(=O)CC[C@H](NC(=O)CCCCCCCCCCCCCCCCCCC(=O)O)C(=O)O)C(=O)N[C@@H](CC(N)=O)C(=O)N[C@@H]([C@@H](C)O)C(=O)N[C@@H](C)C(=O)N[C@@H]([C@@H](C)O)C(=O)N1)[C@@H](C)O)C(=O)N1CCC[C@H]1C(=O)N[C@@H](CO)C(=O)N[C@@H](CO)C(=O)N[C@H](C(=O)N[C@@H](CC(N)=O)C(=O)N[C@H](C(=O)NCC(=O)N1CCC[C@H]1C(=O)N[C@@H](CCCNC(=N)N)C(=O)N[C@H](C(=O)N[C@@H](Cc1ccc(O)cc1)C(N)=O)[C@@H](C)O)C(C)C)[C@@H](C)O, Synthetic acylated analogue of human amylin)
24.8	72.4	9.05	0.125	K([γGlu-C20 diacid])CNTATCATQRLAHFLRHSSPNFGAIPSSTPVGPNTY-NH2 (disulfide 2-7; N-terminus assumed; SMILES CC[C@H](C)[C@H](NC(=O)[C@H](C)NC(=O)CNC(=O)[C@H](Cc1ccccc1)NC(=O)[C@H](CC(N)=O)NC(=O)[C@@H]1CCCN1C(=O)[C@H](CO)NC(=O)[C@H](CO)NC(=O)[C@H](Cc1c[nH]cn1)NC(=O)[C@H](CCCNC(=N)N)NC(=O)[C@H](CC(C)C)NC(=O)[C@H](Cc1ccccc1)NC(=O)[C@H](Cc1c[nH]cn1)NC(=O)[C@H](C)NC(=O)[C@H](CC(C)C)NC(=O)[C@H](CCCNC(=N)N)NC(=O)[C@H](CCC(N)=O)NC(=O)[C@@H](NC(=O)[C@H](C)NC(=O)[C@@H]1CSSC[C@H](NC(=O)[C@@H](N)CCCCNC(=O)CC[C@H](NC(=O)CCCCCCCCCCCCCCCCCCC(=O)O)C(=O)O)C(=O)N[C@@H](CC(N)=O)C(=O)N[C@@H]([C@@H](C)O)C(=O)N[C@@H](C)C(=O)N[C@@H]([C@@H](C)O)C(=O)N1)[C@@H](C)O)C(=O)N1CCC[C@H]1C(=O)N[C@@H](CO)C(=O)N[C@@H](CO)C(=O)N[C@H](C(=O)N1CCC[C@H]1C(=O)N[C@H](C(=O)NCC(=O)N1CCC[C@H]1C(=O)N[C@@H](CC(N)=O)C(=O)N[C@H](C(=O)N[C@@H](Cc1ccc(O)cc1)C(N)=O)[C@@H](C)O)C(C)C)[C@@H](C)O, Synthetic acylated analogue of human amylin)
21.2	52.2	5.43	0.104	K([γGlu-C20 diacid])CNTATCATQRLAEFLRHSSPNFGAIPSSTNVGPHTY-NH2 (disulfide 2-7, Synthetic acylated analogue of human amylin)
